Common to all, as to test: cell-based or functional assay
In assay [1] the target is T1, human gastric inhibitory peptide receptor (GIPR) (human, UniProt P48546 22-466).
T1 sequence (looked up): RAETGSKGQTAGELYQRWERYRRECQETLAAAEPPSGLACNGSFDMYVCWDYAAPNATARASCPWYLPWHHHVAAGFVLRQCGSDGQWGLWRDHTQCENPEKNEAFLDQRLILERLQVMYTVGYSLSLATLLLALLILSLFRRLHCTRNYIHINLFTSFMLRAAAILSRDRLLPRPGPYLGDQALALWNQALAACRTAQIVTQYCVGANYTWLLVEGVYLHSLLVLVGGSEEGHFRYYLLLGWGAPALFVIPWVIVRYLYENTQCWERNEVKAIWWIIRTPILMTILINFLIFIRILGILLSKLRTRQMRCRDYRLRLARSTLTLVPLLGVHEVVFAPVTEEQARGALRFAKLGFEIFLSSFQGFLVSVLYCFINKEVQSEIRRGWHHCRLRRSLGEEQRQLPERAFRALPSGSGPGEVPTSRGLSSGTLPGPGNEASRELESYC

For assay [2], the target named is human GLP-1 receptor (GLP-1R) (human, UniProt P43220 24-463).
In assay [3] the target is Pro-Link-tagged Human GLP-1R (human, UniProt P43220 24-463).
Another assay addresses human GLP-1 receptor (human, UniProt P43220 24-463).

Numbered stars: 1 amine (or outer) side, 2 acyl side, 3 side chain; on linkers, the order of the positions; unused ones are H or OH. Square brackets hold non-standard residues; d marks the D form. Side chains are listed from the residue outwards. Ends that are not written are not given here. * marks the point of attachment. C20 diacid = O=C(O)CCCCCCCCCCCCCCCCCCC(=O)*; C18 diacid = O=C(O)CCCCCCCCCCCCCCCCC(=O)*; αMePhe(2-F) = C[C@](N)(Cc1ccccc1F)C(=O)O; γGlu = O=C(O)[C@H](CCC(=O)[*:2])N[*:1]; αMeF = C[C@](N)(Cc1ccccc1)C(=O)O; αMeP = C[C@@]1(C(=O)O)CCCN1; AEEA = NCCOCCOCC(=O)O; Aib = CC(C)(N)C(=O)O

These results are taken from patent US20220048967A1 (published 2022).

B1: Example 234 (peptide)
peptide: YXEGTXTSDXSILLDXKAQXEFIXYLIEGGPSSGAPPPS
modifications: Y-Aib-EGT-αMeF(2F)-TSD-4Pal-SILLD-Dab-K((2-[2-(2-Amino-ethoxy)-ethoxy]-acetyl)2-(γ-Glu)-CO-(CH2)16-CO2H)AQ-Aib-EFI-(D-Glu)-YLIEGGPSSGAPPPS-NH2
For the molecule B1, in assay [1], the “hGIPR cAMP EC50 ratio” value is 3.83 and the “hGIPR cAMP Rel EC50” value was found to be 0.0372 nM. Besides, in assay [2], the “hGLP1R cAMP EC50 ratio” value was found to be 0.317 and the “hGLP1R cAMP Rel EC50” value is 0.0926 nM.

B2: Example 2 (peptide)
peptide: YXEGTXTSDYSIXLDXKAQXEFIXYLIEGGPSSGAPPPS
modifications: Aib2, αMeF(2F)6, αMeL13, Orn16, K17 conjugated to (2-[2-(2-Amino-ethoxy)-ethoxy]-acetyl)2-(γ-Glu)-CO-(CH2)16-CO2H, Aib20, D-Glu24, C-terminal amide (NH2)
Regarding B2, in assay [3], the “hGLP1R B-Arrestin2 % Top” value was 96.1% and the “hGLP1R B-Arrestin2 Rel EC50” value came out at 8.82 nM. Further, in the assay with human GLP-1 receptor, the “hGLP1R GTPgS % Top” value amounted to 95.9% and the “hGLP1R GTPgS Rel EC50” value was 0.642 nM.

B3: Example 357 (peptide)
peptide: XXEGTFTSDYSIXLDXKAQXAFIXYLIEGGPSSGAPPPS
modifications: D-Tyr1, Aib2, αMeL13, Orn16, K17 conjugated to (2-[2-(2-Amino-ethoxy)-ethoxy]-acetyl)2-(γ-Glu)-CO-(CH2)18-CO2H, Aib20, D-Glu24, C-terminal amide (NH2)
Take B3: in assay [3], the “hGLP1R B-Arrestin2 % Top” value came to 18.2% and the “hGLP1R B-Arrestin2 Rel EC50” value amounted to 118 nM.

B4: Example 356 (peptide)
peptide: XXEGTFTSDYSIXLDKKAQXAFIXYLIEGGPSSGAPPPS
modifications: D-Tyr1, Aib2, αMeL13, K17 conjugated to (2-[2-(2-Amino-ethoxy)-ethoxy]-acetyl)2-(γ-Glu)-CO-(CH2)18-CO2H, Aib20, D-Glu24, C-terminal amide (NH2)
Take B4: the “hGLP1R B-Arrestin2 Rel EC50” value in assay [3] is more than 10500 nM.

B5: Example 228 (peptide)
peptide: Y[Aib]EGT[αMeF]TSDYSIXLDKK([AEEA-AEEA-γGlu-C20 diacid])AQ[Aib]EFI[dE]YLIEGGPSSG-NH2
modifications: not fully specified (residue 13); printed as Y-Aib-EGT-αMeF-TSDYSI-αMeF-LDKK((2-[2-(2-Amino-ethoxy)-ethoxy]-acetyl)2-(γ-Glu)-CO-(CH2)18-CO2H)AQ-Aib-EFI-(D-Glu)-YLIEGGPSSG-NH2
For B5, in assay [1], the “hGIPR cAMP EC50 ratio” value came to 3.86 and the “hGIPR cAMP Rel EC50” value worked out at 0.0503 nM. Further, in assay [2], the “hGLP1R cAMP EC50 ratio” value came out at 1.1 and the “hGLP1R cAMP Rel EC50” value came out at 0.0282 nM.

B6: Example 198 (peptide)
peptide: [dY][αMeP]EGTFTSDYSILLDEK([AEEA-AEEA-γGlu-C18 diacid])AQQAFIEYLIEGGPSSG-NH2
modifications: N-terminus assumed
SMILES: CC[C@H](C)[C@H](NC(=O)[C@H](CC(C)C)NC(=O)[C@H](Cc1ccc(O)cc1)NC(=O)[C@H](CCC(=O)O)NC(=O)[C@@H](NC(=O)[C@H](Cc1ccccc1)NC(=O)[C@H](C)NC(=O)[C@H](CCC(N)=O)NC(=O)[C@H](CCC(N)=O)NC(=O)[C@H](C)NC(=O)[C@H](CCCCNC(=O)COCCOCCNC(=O)COCCOCCNC(=O)CC[C@H](NC(=O)CCCCCCCCCCCCCCCCC(=O)O)C(=O)O)NC(=O)[C@H](CCC(=O)O)NC(=O)[C@H](CC(=O)O)NC(=O)[C@H](CC(C)C)NC(=O)[C@H](CC(C)C)NC(=O)[C@@H](NC(=O)[C@H](CO)NC(=O)[C@H](Cc1ccc(O)cc1)NC(=O)[C@H](CC(=O)O)NC(=O)[C@H](CO)NC(=O)[C@@H](NC(=O)[C@H](Cc1ccccc1)NC(=O)[C@@H](NC(=O)CNC(=O)[C@H](CCC(=O)O)NC(=O)[C@]1(C)CCCN1C(=O)[C@H](N)Cc1ccc(O)cc1)[C@@H](C)O)[C@@H](C)O)[C@@H](C)CC)[C@@H](C)CC)C(=O)N[C@@H](CCC(=O)O)C(=O)NCC(=O)NCC(=O)N1CCC[C@H]1C(=O)N[C@@H](CO)C(=O)N[C@@H](CO)C(=O)NCC(N)=O
Take B6: in assay [1], the “hGIPR cAMP EC50 ratio” value was less than 0.00602 and the “hGIPR cAMP Rel EC50” value was more than 30 nM. Besides, in assay [2], the “hGLP1R cAMP EC50 ratio” value came to 0.337 and the “hGLP1R cAMP Rel EC50” value stood at 0.139 nM.

B7: Example 219 (peptide)
peptide: Y[Aib]EGT[αMePhe(2-F)]TSDYSIXLDEK([AEEA-AEEA-γGlu-C18 diacid])AQ[Aib]EFI[dE]YLIEGGPSSG-NH2
modifications: not fully specified (residue 13); printed as Y-Aib-EGT-αMeF(2F)-TSDYSI-αMeF-LDEK((2-[2-(2-Amino-ethoxy)-ethoxy]-acetyl)2-(γ-Glu)-CO-(CH2)16-CO2H)AQ-Aib-EFI-(D-Glu)-YLIEGGPSSG-NH2
As to B7, in assay [1], the “hGIPR cAMP EC50 ratio” value turned out to be 5.86 and the “hGIPR cAMP Rel EC50” value turned out to be 0.0341 nM. For the same molecule, in assay [2], the “hGLP1R cAMP EC50 ratio” value amounted to 1.03 and the “hGLP1R cAMP Rel EC50” value was 0.0403 nM.

B8: Example 338 (peptide)
peptide: FXEGTFTSDYSIXLDKKAQXEFIEYLIAGGPSSGAPPPS
modifications: not fully specified; Aib2, αMeL13, K17 conjugated to (2-[2-(2-Amino-ethoxy)-ethoxy]-acetyl)2-(γ-Glu)-CO-(CH2)18-CO2H, Aib20, C-terminal amide (NH2)
B8: in assay [3], the “hGLP1R B-Arrestin2 % Top” value came to 47% and the “hGLP1R B-Arrestin2 Rel EC50” value was determined as 18.9 nM.

B9: Example 361 (peptide)
peptide: XXEGTFTSDYSIXLDKKAQXAFVXYLIAGGPSSGAPPPS
modifications: D-Tyr1, Aib2, αMeL13, K17 conjugated to (2-[2-(2-Amino-ethoxy)-ethoxy]-acetyl)2-(γ-Glu)-CO-(CH2)18-CO2H, Aib20, D-Glu24, C-terminal amide (NH2)
For the molecule B9, in assay [3], the “hGLP1R B-Arrestin2 % Top” value worked out at 20.2% and the “hGLP1R B-Arrestin2 Rel EC50” value was 269 nM.

B10: Example 197 (peptide)
peptide: Y[αMeP]EGTFTSDYSILLDEK([AEEA-AEEA-γGlu-C18 diacid])AQQAFIEYLIEGGPSSG-NH2
modifications: N-terminus assumed
SMILES: CC[C@H](C)[C@H](NC(=O)[C@H](CC(C)C)NC(=O)[C@H](Cc1ccc(O)cc1)NC(=O)[C@H](CCC(=O)O)NC(=O)[C@@H](NC(=O)[C@H](Cc1ccccc1)NC(=O)[C@H](C)NC(=O)[C@H](CCC(N)=O)NC(=O)[C@H](CCC(N)=O)NC(=O)[C@H](C)NC(=O)[C@H](CCCCNC(=O)COCCOCCNC(=O)COCCOCCNC(=O)CC[C@H](NC(=O)CCCCCCCCCCCCCCCCC(=O)O)C(=O)O)NC(=O)[C@H](CCC(=O)O)NC(=O)[C@H](CC(=O)O)NC(=O)[C@H](CC(C)C)NC(=O)[C@H](CC(C)C)NC(=O)[C@@H](NC(=O)[C@H](CO)NC(=O)[C@H](Cc1ccc(O)cc1)NC(=O)[C@H](CC(=O)O)NC(=O)[C@H](CO)NC(=O)[C@@H](NC(=O)[C@H](Cc1ccccc1)NC(=O)[C@@H](NC(=O)CNC(=O)[C@H](CCC(=O)O)NC(=O)[C@]1(C)CCCN1C(=O)[C@@H](N)Cc1ccc(O)cc1)[C@@H](C)O)[C@@H](C)O)[C@@H](C)CC)[C@@H](C)CC)C(=O)N[C@@H](CCC(=O)O)C(=O)NCC(=O)NCC(=O)N1CCC[C@H]1C(=O)N[C@@H](CO)C(=O)N[C@@H](CO)C(=O)NCC(N)=O
For B10, in assay [1], the “hGIPR cAMP EC50 ratio” value came out at 0.855 and the “hGIPR cAMP Rel EC50” value is 0.211 nM. For the same molecule, in assay [2], the “hGLP1R cAMP EC50 ratio” value was 0.189 and the “hGLP1R cAMP Rel EC50” value is 0.248 nM.
